Measured values as given in publication PMC3929087.

What was measured:
[1] = cellular trafficking, method not given; details: glycan lost; control: wild type
[2] = secretion into CHO culture medium (unpublished data); details: glycan lost; control: wild type

B1: angiotensin I-converting enzyme (somatic ACE): N1162Q (protein)
parent chain: MGAASGRRGPGLLLPLPLLLLLPPQPALALDPGLQPGNFSADEAGAQLFAQSYNSSAEQVLFQSVAASWAHDTNITAENARRQEEAALLSQEFAEAWGQKAKELYEPIWQNFTDPQLRRIIGAVRTLGSANLPLAKRQQYNALLSNMSRIYSTAKVCLPNKTATCWSLDPDLTNILASSRSYAMLLFAWEGWHNAAGIPLKPLYEDFTALSNEAYKQDGFTDTGAYWRSWYNSPTFEDDLEHLYQQLEPLYLNLHAFVRRALHRRYGDRYINLRGPIPAHLLGDMWAQSWENIYDMVVPFPDKPNLDVTSTMLQQGWNATHMFRVAEEFFTSLELSPMPPEFWEGSMLEKPADGREVVCHASAWDFYNRKDFRIKQCTRVTMDQLSTVHHEMGHIQYYLQYKDLPVSLRRGANPGFHEAIGDVLALSVSTPEHLHKIGLLDRVTNDTESDINYLLKMALEKIAFLPFGYLVDQWRWGVFSGRTPPSRYNFDWWYLRTKYQGICPPVTRNETHFDAGAKFHVPNVTPYIRYFVSFVLQFQFHEALCKEAGYEGPLHQCDIYRSTKAGAKLRKVLQAGSSRPWQEVLKDMVGLDALDAQPLLKYFQPVTQWLQEQNQQNGEVLGWPEYQWHPPLPDNYPEGIDLVTDEAEASKFVEEYDRTSQVVWNEYAEANWNYNTNITTETSKILLQKNMQIANHTLKYGTQARKFDVNQLQNTTIKRIIKKVQDLERAALPAQELEEYNKILLDMETTYSVATVCHPNGSCLQLEPDLTNVMATSRKYEDLLWAWEGWRDKAGRAILQFYPKYVELINQAARLNGYVDAGDSWRSMYETPSLEQDLERLFQELQPLYLNLHAYVRRALHRHYGAQHINLEGPIPAHLLGNMWAQTWSNIYDLVVPFPSAPSMDTTEAMLKQGWTPRRMFKEADDFFTSLGLLPVPPEFWNKSMLEKPTDGREVVCHASAWDFYNGKDFRIKQCTTVNLEDLVVAHHEMGHIQYFMQYKDLPVALREGANPGFHEAIGDVLALSVSTPKHLHSLNLLSSEGGSDEHDINFLMKMALDKIAFIPFSYLVDQWRWRVFDGSITKENYNQEWWSLRLKYQGLCPPVPRTQGDFDPGAKFHIPSSVPYIRYFVSFIIQFQFHEALCQAAGHTGPLHKCDIYQSKEAGQRLATAMKLGFSRPWPEAMQLITGQPNMSASAMLSYFKPLLDWLRTENELHGEKLGWPQYNWTPNSARSEGPLPDSGRVSFLGLDLDAQQARVGQWLLLFLGIALLVATLGLSQRLFSIRHRSLHRHSHGPQFGSEVELRHS
In the case of B1, the localisation_or_trafficking [1] is reported as “no change” and the expression_or_secretion [2] is reported as “no change”.
